Measurements reported in IntAct's records for PubMed 23202584.

B1: Ubiquitin-like protein ATG12 (Homo sapiens), O94817 (parent)
chain: MAEEPQSVLQLPTSIAAGGEGLTDVSPETTTPEPPSSAAVSPGTEEPAGDTKKKIDILLKAVGDTPIMKTKKWAVERTRTIQGLIDFIKKFLKLVASEQLFIYVNQSFAPSPDQEVGTLYECFGSDGKLVLHYCKSQAWG

Variants of: B1
Conditions: with atg3_mouse Atg3, Q9CPX6
Chain of atg3_mouse Atg3, Q9CPX6 (Q9CPX6 whole entry): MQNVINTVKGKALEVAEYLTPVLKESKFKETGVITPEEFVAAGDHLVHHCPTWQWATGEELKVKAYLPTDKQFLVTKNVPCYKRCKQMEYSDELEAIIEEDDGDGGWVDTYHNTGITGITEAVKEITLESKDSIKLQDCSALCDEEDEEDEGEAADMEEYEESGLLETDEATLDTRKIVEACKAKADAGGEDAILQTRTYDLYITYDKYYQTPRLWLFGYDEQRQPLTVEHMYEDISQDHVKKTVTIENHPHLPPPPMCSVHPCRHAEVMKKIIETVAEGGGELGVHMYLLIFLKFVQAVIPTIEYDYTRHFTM
In the case of W73A, the “effect of a mutation on the interaction” value is reported as “disrupting interaction strength”.
For K72D, the “effect of a mutation on the interaction” value was “disrupting interaction strength”.
In the case of K54D, the “effect of a mutation on the interaction” value is reported as “disrupting interaction strength”.
